Positions count from the first letter of the chain named.
Tests used:
[1] = target: T1, recombinant C-terminal polyhistidine-tagged human (extracellular) CD89 (Sino Biological) (human, UniProt P24071 22-227); assay: ELISA on coated rhuCD89
T1 construct: extracellular domain; bought protein; also called rhuCD89; soluble monomeric rhuCD89
Protocol: After extensive washing with PBS/0.05% Tween 20, plates were blocked with PBS/0.05% Tween 20/1% BSA (Roche) for 1 hour at RT. Subsequently, plates were incubated with 50 µL titrated (in block buffer) purified mouse anti-human CD89 antibody/well for 1 hour at RT. […] After extensive washing in PBS/0.05% Tween 20, binding of antibodies on rhuCD89 was determined with 1:5,000 diluted horseradish peroxidase (HRP)-conjugated goat anti-mouse IgG Fcy-specific antibodies (Jackson ImmunoResearch) for 1 hour at RT, followed by a ready-to-use solution of TMB substrate (Invitrogen) for colorimetric detection.

[2] = target: T2, membrane-bound full-length human CD89 on HEK293F cells (human, UniProt P24071 22-287); assay: FACS, unlabelled antibody before MIP8a-PE on HEK293F-huCD89
T2 construct: 2 or transient transfectants; also called membrane human CD89; human FcaRI

[3] = target: T2, membrane-bound full-length human CD89 …; assay: FACS, antibody before serum IgA on HEK293F-huCD89; IgA detected
Protocol: Then, 10 µL/tube (i.e., 0.1 x 10⁶ cells) of these cells were incubated with 50 µL titrated (in PBS/BSA/NaN₃) purified mouse anti-human CD89 antibody/tube for 30 minutes at 4° C. […] After extensive washing in PBS/BSA/NaN₃, 1:200 diluted PE-conjugated streptavidin (Jackson ImmunoResearch) was added, and incubated for 30 minutes at 4° C. After extensive washing in PBS/BSA/NaN₃, cells were fixed in 2% formaldehyde in PBS/BSA/NaN₃ for 30 minutes at 4° C.

[4] = target: T2, membrane-bound full-length human CD89 …; assay: FACS on HEK293F-huCD89
Protocol: Then, 10 µL/tube (i.e., 0.1 x 10⁶ cells) of these cells were incubated with 100 µL titrated (in PBS/BSA/NaN₃) purified mouse anti-human CD89 antibody/tube for 30 minutes at 4° C. […] After extensive washing in PBS/BSA/NaN₃, cells were subsequently incubated with 1:200 diluted PE-conjugated goat anti-mouse IgG Fcy-specific antibodies (Jackson ImmunoResearch) for 30 minutes at 4° C. After extensive washing in PBS/BSA/NaN₃, cells were fixed in 2% formaldehyde in PBS/BSA/NaN₃ for 30 minutes at 4° C.

[5] = target: T2, membrane-bound full-length human CD89 …; assay: FACS, unlabelled antibody before A3-PE on HEK293F-huCD89
[6] = target: T3, membrane human CD89 on ex vivo primary human neutrophilic granulocytes or monocytic U937 cells (human, UniProt P24071 22-287); assay: cell-based or functional assay
[7] = target: T3, membrane human CD89 on ex vivo primary …; assay: cell-based or functional assay; remark: listed apart in the source
[8] = target: T2, membrane-bound full-length human CD89 …; assay: FACS, antibody before secretory IgA on HEK293F-huCD89; IgA detected
Protocol: Then, 10 µL/tube (i.e., 0.1 x 10⁶ cells) of these cells were incubated with or without 50 µL titrated (in PBS/BSA/NaN₃) purified mouse anti-human CD89 antibody/tube for 30 minutes at 4° C. […] After extensive washing in PBS/BSA/NaN₃, 1:200 diluted PE-conjugated streptavidin (Jackson ImmunoResearch) was added, and incubated for 30 minutes at 4° C. After extensive washing in PBS/BSA/NaN₃, cells were fixed in 4% formaldehyde in PBS/BSA/NaN₃ for 30 minutes at 4° C.

[9] = target: T2, membrane-bound full-length human CD89 …; assay: FACS HEK293F-huCD89, 10 ug/mL; competitor PE-MIP8a
Protocol: (§1) Then, 10 µL/tube (i.e., 0.1 × 10⁶ cells) of these cells were incubated with or without 100 µL purified mouse anti-human CD89 antibody at 10 µg/mL (in PBS/BSA/NaN₃) for 30 minutes at 4° C. […] After extensive washing in PBS/BSA/NaN₃, cells were fixed in 2% formaldehyde in PBS/BSA/NaN₃ for 30 minutes at 4° C.

[10] = target: T1, recombinant C-terminal …; assay: ELISA, antibody before serum IgA on coated rhuCD89; IgA detected
[11] = target: T4, chimeric human/cynomolgus monkey CD89-hotspots on HEK293F cells (human/cynomolgus chimera, UniProt P24071 22-287); assay: FACS, 10 µg/mL, transiently transfected HEK293F
T4 construct: also called dThr58, Gln59; dArg73, Arg74, Lys76
T4 chain: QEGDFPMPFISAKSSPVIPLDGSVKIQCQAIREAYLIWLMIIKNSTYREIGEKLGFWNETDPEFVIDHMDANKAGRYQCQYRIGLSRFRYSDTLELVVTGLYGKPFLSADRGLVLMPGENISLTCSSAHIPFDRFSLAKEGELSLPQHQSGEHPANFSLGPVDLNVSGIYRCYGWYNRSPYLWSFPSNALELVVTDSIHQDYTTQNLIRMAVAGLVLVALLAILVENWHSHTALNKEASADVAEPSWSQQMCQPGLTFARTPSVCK

[12] = target: T5, chimeric human/cynomolgus monkey CD89-II on HEK293F cells (human/cynomolgus chimera, UniProt P24071 22-287); assay: FACS, 10 µg/mL, transiently transfected HEK293F
T5 construct: also called dIle47 - Ile71 human EC1-CD89; II (47-71)
T5 chain: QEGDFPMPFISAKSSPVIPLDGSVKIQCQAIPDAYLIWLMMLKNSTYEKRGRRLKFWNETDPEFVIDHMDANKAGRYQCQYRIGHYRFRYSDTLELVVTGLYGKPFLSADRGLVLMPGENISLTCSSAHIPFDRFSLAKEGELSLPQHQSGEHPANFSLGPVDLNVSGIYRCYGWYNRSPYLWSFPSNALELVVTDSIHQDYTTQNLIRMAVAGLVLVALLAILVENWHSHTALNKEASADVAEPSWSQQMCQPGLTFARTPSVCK

[13] = target: T6, chimeric human/cynomolgus monkey CD89-I on HEK293F cells (human/cynomolgus chimera, UniProt P24071 22-287); assay: FACS, 10 µg/mL, transiently transfected HEK293F
T6 construct: also called dGln22 - Lys46 human EC1-CD89; I (22-46)
T6 chain: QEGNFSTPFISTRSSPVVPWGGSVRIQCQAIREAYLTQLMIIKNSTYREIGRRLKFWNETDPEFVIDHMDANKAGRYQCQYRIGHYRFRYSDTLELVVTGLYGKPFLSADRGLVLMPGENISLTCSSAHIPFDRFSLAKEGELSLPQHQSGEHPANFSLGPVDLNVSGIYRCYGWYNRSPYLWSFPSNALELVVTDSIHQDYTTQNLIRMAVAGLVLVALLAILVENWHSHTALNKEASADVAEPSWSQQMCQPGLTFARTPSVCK

[14] = target: T7, chimeric human/cynomolgus monkey CD89-III on HEK293F cells (human/cynomolgus chimera, UniProt P24071 22-287); assay: FACS, 10 µg/mL, transiently transfected HEK293F
T7 construct: also called dGly72 - Gly96 human EC1-CD89; III (72-96)
T7 chain: T4 chain with I37T, W38Q, G51D, E59D, D61T, L85H, S86Y

[15] = target: T8, membrane full-length cynomolgus monkey CD89 on HEK293F cells (cynomolgus monkey); assay: FACS, transiently transfected HEK293F
T8 construct: also called cynoCD89; cynomolgus EC1-CD89
T8 chain: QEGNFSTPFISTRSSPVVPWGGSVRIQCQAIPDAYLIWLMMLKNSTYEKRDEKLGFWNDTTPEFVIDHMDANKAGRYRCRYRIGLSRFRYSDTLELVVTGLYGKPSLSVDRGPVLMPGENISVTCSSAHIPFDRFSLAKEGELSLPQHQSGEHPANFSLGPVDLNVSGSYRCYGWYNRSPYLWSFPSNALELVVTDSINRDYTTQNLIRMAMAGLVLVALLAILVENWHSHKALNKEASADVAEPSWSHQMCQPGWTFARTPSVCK
Protocol: (§2) To this end, transient transfected HEK293F cells were put at 10 x 10⁶ cells/mL in ice-chilled phosphate-buffered saline containing 0.1% BSA (Sigma)/0.05% NaN₃ (PBS/BSA/NaN₃) supplemented with 50 µg/mL human IgGs (blocking FcY receptors; Sigma) for 10 minutes at 4° C. Then, 10 µL/tube (i.e., 0.1 × 10⁶ cells) of these cells were incubated with or without 100 µL purified mouse anti-human CD89 antibody at 10 µg/mL (in PBS/BSA/NaN₃) for 30 minutes at 4° C. […] After extensive washing in PBS/BSA/NaN₃, cells were subsequently incubated with 1:200 diluted PE-conjugated goat anti-mouse IgG Fcy-specific antibodies (Jackson ImmunoResearch) for 30 minutes at 4° C. After extensive washing in PBS/BSA/NaN₃, cells were fixed in 2% formaldehyde in PBS/BSA/NaN₃ for 30 minutes at 4° C.

[16] = target: T9, chimeric bovine EC1-Fcgamma2R/human EC2-CD89 on HEK293F cells (bovine/human chimera); assay: FACS, transiently transfected HEK293F
T9 chain: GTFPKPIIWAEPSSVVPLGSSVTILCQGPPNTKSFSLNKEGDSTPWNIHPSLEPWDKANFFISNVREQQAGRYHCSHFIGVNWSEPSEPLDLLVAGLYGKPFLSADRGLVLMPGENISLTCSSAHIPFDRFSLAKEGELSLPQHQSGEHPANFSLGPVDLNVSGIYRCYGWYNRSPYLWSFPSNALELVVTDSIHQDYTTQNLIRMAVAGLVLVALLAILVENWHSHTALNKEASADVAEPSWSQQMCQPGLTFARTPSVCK
Protocol: To this end, transient transfected HEK293F cells were put at 10 × 10⁶ cells/mL in ice-chilled phosphate-buffered saline containing 0.1% BSA (Sigma)/0.05% NaN₃ (PBS/BSA/NaN₃) supplemented with 50 µg/mL human IgGs (blocking Fcy receptors; Sigma) for 10 minutes at 4° C. Then, 10 µL/tube (i.e., 0.1 × 10⁶ cells) of these cells were incubated with or without 100 µL purified mouse anti-human CD89 antibody at 10 µg/mL (in PBS/BSA/NaN₃) for 30 minutes at 4° C. […] After extensive washing in PBS/BSA/NaN₃, cells were subsequently incubated with 1:200 diluted PE-conjugated goat anti-mouse IgG Fcy-specific antibodies (Jackson ImmunoResearch) for 30 minutes at 4° C. After extensive washing in PBS/BSA/NaN₃, cells were fixed in 2% formaldehyde in PBS/BSA/NaN₃ for 30 minutes at 4° C.

[17] = target: T3, membrane human CD89 on ex vivo primary …; assay: cell-based or functional assay; remark: listed apart in the source
[18] = target: T2, membrane-bound full-length human CD89 …; assay: FACS HEK293F-huCD89
Protocol: After extensive washing in PBS/BSA/NaN₃, cells were subsequently incubated with 1:200 diluted PE-conjugated goat anti-human IgG Fcy-specific antibodies (Jackson ImmunoResearch) for 30 minutes at 4° C. After extensive washing in PBS/BSA/NaN₃, cells were fixed in 2% formaldehyde in PBS/BSA/NaN₃ for 30 minutes at 4° C.

[19] = target: T2, membrane-bound full-length human CD89 …; assay: FACS HEK293F-huCD89, 10 ug/mL; competitor PE-A3
Protocol: as §1

[20] = target: T10, chimeric human/cynomolgus monkey CD89-IV on HEK293F cells (human/cynomolgus chimera, UniProt P24071 22-287); assay: FACS, 10 µg/mL, transiently transfected HEK293F
T10 construct: also called dArg97 - Gly121 human EC1-CD89
T10 chain: T4 chain with I37T, W38Q, E52R, K53R, G55K, Q78R, Q80R

[21] = target: T8, membrane full-length cynomolgus monkey …; assay: FACS, 10 µg/mL, transiently transfected HEK293F
Protocol: as §2

[22] = target: T1, recombinant C-terminal …; assay: ELISA, coated rhuCD89
[23] = target: T4, chimeric human/cynomolgus monkey …; assay: FACS, transiently transfected HEK293F
Protocol: To this end, transient transfected HEK293F cells were put at 10 × 10⁶ cells/mL in ice-chilled phosphate-buffered saline containing 0.1% BSA (Sigma)/0.05% NaN₃ (PBS/BSA/NaN₃) supplemented with 50 µg/mL human IgGs (blocking FcY receptors; Sigma) for 10 minutes at 4° C. Then, 10 µL/tube (i.e., 0.1 × 10⁶ cells) of these cells were incubated with or without 100 µL purified mouse anti-human CD89 antibody at 10 µg/mL (in PBS/BSA/NaN₃) for 30 minutes at 4° C. […] After extensive washing in PBS/BSA/NaN₃, cells were subsequently incubated with 1:200 diluted PE-conjugated goat anti-mouse IgG Fcy-specific antibodies (Jackson ImmunoResearch) for 30 minutes at 4° C. After extensive washing in PBS/BSA/NaN₃, cells were fixed in 2% formaldehyde in PBS/BSA/NaN₃ for 30 minutes at 4° C.

[24] = target: T2, membrane-bound full-length human CD89 …; assay: FACS HEK293F-huCD89, 10 ug/mL; competitor PE-A59
Protocol: as §1

B1: CD89/IgA blocking mouse anti-human CD89-specific antibody 9H7 (antibody, V domains shown)
VH: QIQLVQSGPELKKPGETVKISCKASGYTFKNYGMNWVKQAPGKGLKWMAWINTYTGEPTHTDDFKGRFVFSLETSASTAYLQINNLKNEDTATYFCARWGLGTTEEAARDYWGQGTTLTVSS
VL: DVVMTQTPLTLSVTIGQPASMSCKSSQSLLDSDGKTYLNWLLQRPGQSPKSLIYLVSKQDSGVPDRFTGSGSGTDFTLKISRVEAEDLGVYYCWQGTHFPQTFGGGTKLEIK
[1]
  EC50 (read off the curve): ~0.01 µg/mL
[2]
  IC50 (read off the curve): ~0.4 µg/mL
[3]
  IC50 (read off the curve): ~0.2 µg/mL
[4]
  EC50 (read off the curve): ~0.2 µg/mL
[5]
  IC50 (read off the curve): ~0.4 µg/mL
[6]
  IC50 (read off the bars), binding of granulocytes to plate-bound serum IgA [Donor 1]: ~0.9 µg/mL
[7]
  IC50 (read off the bars), binding of granulocytes to plate-bound serum IgA [Donor 2]: ~0.2 µg/mL
[8]
  IC50 (read off the curve): ~0.4 µg/mL
[9]
  % blocking of PE-MIP8a binding: > 90%
[10]
  IC50 (read off the curve): ~0.03 µg/mL

B2: CD89/IgA blocking mouse anti-human CD89-specific antibody 26D6 (antibody, V domains shown)
VH: QIQLVQSGPELKKPGETVKISCKASGYTLTKYGMNWVKQAPGKGLKWMGWINTYTGEPTYADDFKGRFAFSLETSASTAYLQINNLKNEDTATYFCASLPLFGRDSFAYWGQGTLVTVSA
VL: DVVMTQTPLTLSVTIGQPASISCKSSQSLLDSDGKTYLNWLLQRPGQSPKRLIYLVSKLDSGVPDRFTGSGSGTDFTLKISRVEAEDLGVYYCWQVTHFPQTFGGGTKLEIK
notes: also called 26B6 [sic]
[11]
  binding result: binds
[12]
  binding result: binds
[13]
  binding result: binds
[14]
  binding result: binds
[1]
  EC50 (read off the curve): ~0.008 µg/mL
[3]
  IC50 (read off the curve): ~0.2 µg/mL
[15]
  binding result: no binding (tested: 10 µg/mL)
[5]
  IC50 (read off the curve): ~0.3 µg/mL
[7]
  IC50 (read off the bars), binding of granulocytes to plate-bound serum IgA [Donor 2]: ~0.1 µg/mL
[8]
  IC50 (read off the curve): ~0.3 µg/mL
[9]
  % blocking of PE-MIP8a binding: > 90%
[16]
  binding result: no binding (tested: 10 µg/mL)
[17]
  IC50 (read off the bars), binding of granulocytes to plate-bound serum IgA [Donor 3]: ~1 µg/mL

B3: CD89/IgA blocking mouse anti-human CD89-specific antibody 16D6 (antibody, V domains shown)
VH: QVQLQQSGAELMKPGASVKISCKATGYTFSTYWIEWVKQRPGHGLEWIGEILPGSGSANYNEKFKGKATFTADTSSNTAYMQLSSLTFEDSAVYYCAKGFGSPYYYAMDYWGQGTSVTVSS
VL: EIVLTQSPALMAASPGEKVTITCSVSSSISSSNLHWYQQKSETSPKPWIYGTSKLASGVPVRFSGSGSGTSYSLTISNMEAEDAATYYCQQWSSFPLTFGGGTKLEIK
notes: also called 16D16 [sic]
[18]
  EC50: 1.62 µg/mL
[19]
  % blocking of PE-A3 binding: < 25%
[12]
  binding result: binds
[13]
  binding result: binds
[14]
  binding result: binds
[20]
  binding result: binds
[21]
  binding result: binds
[22]
  EC50: 0.119 µg/mL
[23]
  binding result: no binding (tested: 10 µg/mL)
[9]
  % blocking of PE-MIP8a binding: < 25%
[16]
  binding result: no binding (tested: 10 µg/mL)
[24]
  % blocking of PE-A59 binding: < 25%

— US20230242646A1 (JJP BIOLOGICS SP Z O O, published 2023)
